Measurements taken from patent publication US20090298765A1 (Takeda / Millennium, published 2009).
Read-outs that look alike come from different tables or passages of the source. Non-standard residues stand in square brackets, D forms with d. No end group written: not given here. *: point of attachment. GuAmb = 4-guanidinomethylbenzoyl, N=C(N)NCc1ccc(C(=O)*)cc1; 2‑(indol-3-yl)ethylcarbamoyl = O=C(NCCc1c[nH]c2ccccc12)*; Propanoyl(3-indol-3-yl) = O=C(CCc1c[nH]c2ccccc12)*; Diphenylacetyl = O=C(C(c1ccccc1)c1ccccc1)*; indole‑3‑carbonyl = O=C(c1c[nH]c2ccccc12)*; indole‑3‑acetyl = O=C(Cc1c[nH]c2ccccc12)*; Arg(Me) = CNC(=N)NCCC[C@H](N)C(=O)O; Arg(n-Pr) = n-propylated arginine; Hydrocinnamoyl = O=C(CCc1ccccc1)*; Orn = NCCC[C@H](N)C(=O)O; azaGly = NNC(=O)O

Columns and labels:
[1] = target: T1, human OT7T175 (metastin receptor) (human, UniProt Q969F8 1-398); assay: cell-based or functional assay
T1 sequence (Q969F8 whole entry L364H): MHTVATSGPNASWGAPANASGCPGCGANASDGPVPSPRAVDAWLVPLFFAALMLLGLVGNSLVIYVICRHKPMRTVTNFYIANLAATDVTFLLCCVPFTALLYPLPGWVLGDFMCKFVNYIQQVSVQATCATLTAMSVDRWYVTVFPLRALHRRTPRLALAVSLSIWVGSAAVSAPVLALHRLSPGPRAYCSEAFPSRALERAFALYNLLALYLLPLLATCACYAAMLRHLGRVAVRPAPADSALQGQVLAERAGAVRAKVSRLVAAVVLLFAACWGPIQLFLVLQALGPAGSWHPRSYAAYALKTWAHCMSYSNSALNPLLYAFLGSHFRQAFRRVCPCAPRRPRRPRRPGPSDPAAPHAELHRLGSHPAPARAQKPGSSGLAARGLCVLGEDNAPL

[2] = target: T1, human OT7T175 (metastin receptor); assay: cell-based or functional assay; remark: listed apart in the source
[3] = target: T1, human OT7T175 (metastin receptor); assay: competition with Cy-5 metastin (40-54) on hOT7T175-CHO cells, FMAT
[4] = target: T1, human OT7T175 (metastin receptor); assay: cell-based or functional assay; remark: listed apart in the source

| Binder | Ca ion level-increasing activity (FLIPR) [1] | Ca ion level-increasing activity (FLIPR, 40 s) [2] | IC50 [3] | Ca ion level-increasing activity (FLIPR) [4] |
| --- | --- | --- | --- | --- |
| YNWNSFGL[Orn]F-NH2 (N-terminus assumed; SMILES CC(C)C[C@H](NC(=O)CNC(=O)[C@H](Cc1ccccc1)NC(=O)[C@H](CO)NC(=O)[C@H](CC(N)=O)NC(=O)[C@H](Cc1c[nH]c2ccccc12)NC(=O)[C@H](CC(N)=O)NC(=O)[C@@H](N)Cc1ccc(O)cc1)C(=O)N[C@@H](CCCN)C(=O)N[C@@H](Cc1ccccc1)C(N)=O, also called Compound No. 314) [[Orn9]MS10] | 1 x Metastin (1-54) | 4.4 EC50/MS10 EC50 | 470 nM |  |
| [dY][dN]WNTF[azaGly]L[Arg(Me)]F-NH2 (N-terminus assumed; SMILES CNC(=N)NCCC[C@H](NC(=O)[C@H](CC(C)C)NC(=O)NNC(=O)[C@H](Cc1ccccc1)NC(=O)[C@@H](NC(=O)[C@H](CC(N)=O)NC(=O)[C@H](Cc1c[nH]c2ccccc12)NC(=O)[C@@H](CC(N)=O)NC(=O)[C@H](N)Cc1ccc(O)cc1)[C@@H](C)O)C(=O)N[C@@H](Cc1ccccc1)C(N)=O, also called Compound No. 298) [[D-Tyr1,D-Asn2,Thr5,AzaGly7,Arg(Me)9]MS10] | 5 x Metastin (1-54) | 1.8 EC50/MS10 EC50 | 0.25 nM |  |
| [dY]NWNTF[azaGly]L[Arg(Me)]F-NH2 (N-terminus assumed; SMILES CNC(=N)NCCC[C@H](NC(=O)[C@H](CC(C)C)NC(=O)NNC(=O)[C@H](Cc1ccccc1)NC(=O)[C@@H](NC(=O)[C@H](CC(N)=O)NC(=O)[C@H](Cc1c[nH]c2ccccc12)NC(=O)[C@H](CC(N)=O)NC(=O)[C@H](N)Cc1ccc(O)cc1)[C@@H](C)O)C(=O)N[C@@H](Cc1ccccc1)C(N)=O, also called Compound No. 297) [[D-Tyr1,Thr5,AzaGly7,Arg(Me)9]MS10] | 1 x Metastin (1-54) | 5.5 EC50/MS10 EC50 | 0.93 nM |  |
| YNWNSFGLXF (Nar(Me)9; C-terminal amide, also called Compound No. 311) [[Nar(Me)9]MS10] | 1 x Metastin (1-54) | 6.2 EC50/MS10 EC50 | 470 nM |  |
| GuAmb-FGL[Arg(Me)]F-NH2 (SMILES CNC(=N)NCCC[C@H](NC(=O)[C@H](CC(C)C)NC(=O)CNC(=O)[C@H](Cc1ccccc1)NC(=O)c1ccc(CNC(=N)N)cc1)C(=O)N[C@@H](Cc1ccccc1)C(N)=O) [des(1-5)-GuAmb-[Arg(Me)9]MS10] | 1 x Metastin (1-54) | 5 EC50/MS10 EC50 |  |  |
| Diphenylacetyl-NSF[azaGly]L[Arg(Me)]F-NH2 (SMILES CNC(=N)NCCC[C@H](NC(=O)[C@H](CC(C)C)NC(=O)NNC(=O)[C@H](Cc1ccccc1)NC(=O)[C@H](CO)NC(=O)[C@H](CC(N)=O)NC(=O)C(c1ccccc1)c1ccccc1)C(=O)N[C@@H](Cc1ccccc1)C(N)=O, also called Compound No. 268) [des(1-3)-Diphenylacetyl-[AzaGly7,Arg(Me)9]MS10] | 1 x Metastin (1-54) | 4.5 EC50/MS10 EC50 | 550 nM |  |
| [dY]NWSSFGL[Arg(Me)]F-NH2 (N-terminus assumed; SMILES CNC(=N)NCCC[C@H](NC(=O)[C@H](CC(C)C)NC(=O)CNC(=O)[C@H](Cc1ccccc1)NC(=O)[C@H](CO)NC(=O)[C@H](CO)NC(=O)[C@H](Cc1c[nH]c2ccccc12)NC(=O)[C@H](CC(N)=O)NC(=O)[C@H](N)Cc1ccc(O)cc1)C(=O)N[C@@H](Cc1ccccc1)C(N)=O) [[D-Tyr1,Ser4,Arg(Me)9]MS10] |  |  |  | 0.5 x Metastin (1-54) |
| {Propanoyl(3-indol-3-yl)}-NSF[azaGly]L[Arg(Me)]F-NH2 (also: also named 1-(3-indolyl)propionyl cap, also called Compound No. 260) [des(1-3)-3-(3-Indolyl)propionyl-[AzaGly7,Arg(Me)9]MS10] | 5 x Metastin (1-54) | 4.3 EC50/MS10 EC50 | 320 nM |  |
| [dY]NWNSFGL[Arg(Me)]F-NH2 (also: bond 6-7 CONH replaced by CSNH (thioamide), also called Compound No. 296) [[6Ψ7,CSNH,D-Tyr1,Arg(Me)9]MS10] | 3 x Metastin (1-54) | 5.2 EC50/MS10 EC50 | 14 nM |  |
| [dY]NWNSFGL[Arg(n-Pr)]F-NH2 [[D-Tyr1,Arg(n-Pr)9]MS10] |  |  |  | 0.5 x Metastin (1-54) |
| {indole‑3‑acetyl}-NSF[azaGly]L[Arg(Me)]F-NH2 (SMILES CNC(=N)NCCC[C@H](NC(=O)[C@H](CC(C)C)NC(=O)NNC(=O)[C@H](Cc1ccccc1)NC(=O)[C@H](CO)NC(=O)[C@H](CC(N)=O)NC(=O)Cc1c[nH]c2ccccc12)C(=O)N[C@@H](Cc1ccccc1)C(N)=O, also called Compound No. 266) [des(1-3)-Indole-3-acetyl-[AzaGly7,Arg(Me)9]MS10] | 2 x Metastin (1-54) | 5.4 EC50/MS10 EC50 | 230 nM |  |
| {Propanoyl(3-indol-3-yl)}-F[azaGly]L[Arg(Me)]F-NH2 (SMILES CNC(=N)NCCC[C@H](NC(=O)[C@H](CC(C)C)NC(=O)NNC(=O)[C@H](Cc1ccccc1)NC(=O)CCc1c[nH]c2ccccc12)C(=O)N[C@@H](Cc1ccccc1)C(N)=O) [des(1-5)-3-(3-Indolyl)propionyl-[AzaGly7,Arg(Me)9]MS10] | 2 x Metastin (1-54) | 5.9 EC50/MS10 EC50 |  |  |
| {2‑(indol-3-yl)ethylcarbamoyl}-NSF[azaGly]L[Arg(Me)]F-NH2 (SMILES CNC(=N)NCCC[C@H](NC(=O)[C@H](CC(C)C)NC(=O)NNC(=O)[C@H](Cc1ccccc1)NC(=O)[C@H](CO)NC(=O)[C@H](CC(N)=O)NC(=O)NCCc1c[nH]c2ccccc12)C(=O)N[C@@H](Cc1ccccc1)C(N)=O, also called Compound No. 279) [des(1-3)-2-(Indol-3-yl)ethylcarbamoyl-[AzaGly7,Arg(Me)9]MS10] | 5 x Metastin (1-54) | 6.4 EC50/MS10 EC50 | 29 nM |  |
| {indole‑3‑carbonyl}-NSF[azaGly]L[Arg(Me)]F-NH2 (also called Compound No. 265) [des(1-3)-Indole-3-carbonyl-[AzaGly7,Arg(Me)9]MS10] | 3 x Metastin (1-54) | 4.4 EC50/MS10 EC50 | 95 nM |  |
| Hydrocinnamoyl-NSF[azaGly]L[Arg(Me)]F-NH2 (also called Compound No. 269) [des(1-3)-3-Phenylpropionyl-[AzaGly7,Arg(Me)9]MS10] | 3 x Metastin (1-54) | 3.4 EC50/MS10 EC50 | 470 nM |  |
| YNWNSFGLXF (Nar9; C-terminal amide, also called Compound No. 310) [[Nar9]MS10] | 3 x Metastin (1-54) | 2 EC50/MS10 EC50 | 310 nM |  |
